Test results published in article PMC6453779, “The Different Effects of Substrates and Nucleotides on the Complex Formation of ABC Transporters” (Structure(London, England:1993), 2019).
Each block holds one molecule with its values, some of them ahead of it.

Experiments:
[1] = biological target: T1, ModBC-A⋅MoO4^2− (nucleotide row) (Archaeoglobus fulgidus, UniProt O30144); assay: native mass spectrometry; format: binding; details: 10 uM ATP and MgCl2 added to ModBC, ModA preloaded with molybdate; one and two ADP bound; C8E4
T1 construct: gene wtpC; nucleotide site on the NBDs (ModC); with Molybdate/tungstate transport system permease protein WtpB
T1 sequence (O30142 32-342 partner, one chain of several): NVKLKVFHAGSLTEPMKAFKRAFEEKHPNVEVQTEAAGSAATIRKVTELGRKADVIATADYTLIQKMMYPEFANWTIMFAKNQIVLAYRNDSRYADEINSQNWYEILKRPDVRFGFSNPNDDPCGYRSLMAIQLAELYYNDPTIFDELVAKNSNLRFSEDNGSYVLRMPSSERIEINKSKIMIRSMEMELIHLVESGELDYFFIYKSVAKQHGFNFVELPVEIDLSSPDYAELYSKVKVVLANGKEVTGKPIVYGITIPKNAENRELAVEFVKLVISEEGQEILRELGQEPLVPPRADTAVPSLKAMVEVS

BtuCD = biological target: T2, BtuCD (Escherichia coli, UniProt P06611); assay: native mass spectrometry; format: binding; details: free BtuCD population beside BtuCD-F, C8E4
T2 construct: gene btuD; BtuC2D2 tetramer without BtuF; pET19b-BtuCD in E. coli BL21(DE3), LDAO purified, MS in C8E4; theoretical mass 128,839 Da; with Vitamin B12 import system permease protein BtuC
T2 sequence (P06611 1-249): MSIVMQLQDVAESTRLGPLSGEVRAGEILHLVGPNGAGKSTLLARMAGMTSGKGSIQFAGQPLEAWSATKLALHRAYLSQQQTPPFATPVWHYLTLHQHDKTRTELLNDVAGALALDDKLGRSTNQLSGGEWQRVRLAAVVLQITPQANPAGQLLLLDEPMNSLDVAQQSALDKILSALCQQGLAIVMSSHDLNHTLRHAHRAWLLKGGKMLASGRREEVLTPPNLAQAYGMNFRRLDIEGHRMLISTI
T2 sequence (P06609 1-326 partner): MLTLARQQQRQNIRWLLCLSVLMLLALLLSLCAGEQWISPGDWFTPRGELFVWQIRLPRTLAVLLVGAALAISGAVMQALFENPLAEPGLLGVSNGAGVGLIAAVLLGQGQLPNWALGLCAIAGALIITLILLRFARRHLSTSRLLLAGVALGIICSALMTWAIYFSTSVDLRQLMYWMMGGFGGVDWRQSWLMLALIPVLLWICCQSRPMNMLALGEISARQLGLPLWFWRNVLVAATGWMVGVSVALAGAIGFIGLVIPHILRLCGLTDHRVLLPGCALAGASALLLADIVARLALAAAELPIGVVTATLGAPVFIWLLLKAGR

BtuCD-F = biological target: T3, BtuCD-F (Escherichia coli, UniProt P06611); assay: native mass spectrometry; format: binding; details: then BtuF, C8E4
T3 construct: gene btuD; BtuC2D2-F complex; BtuCD from pET19b-BtuCD in E. coli BL21(DE3), LDAO purified, MS in C8E4; BtuF residues 23-266; theoretical mass 158,253 Da; with Vitamin B12 import system permease protein BtuC
T3 sequence (P06611 1-249): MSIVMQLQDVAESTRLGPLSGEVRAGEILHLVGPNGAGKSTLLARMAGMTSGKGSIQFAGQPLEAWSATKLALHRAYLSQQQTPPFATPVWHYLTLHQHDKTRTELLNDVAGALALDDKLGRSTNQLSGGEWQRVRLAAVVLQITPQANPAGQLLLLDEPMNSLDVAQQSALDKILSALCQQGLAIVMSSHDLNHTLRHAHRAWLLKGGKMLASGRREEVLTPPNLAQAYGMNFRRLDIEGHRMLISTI
T3 sequence (P06609 1-326 partner): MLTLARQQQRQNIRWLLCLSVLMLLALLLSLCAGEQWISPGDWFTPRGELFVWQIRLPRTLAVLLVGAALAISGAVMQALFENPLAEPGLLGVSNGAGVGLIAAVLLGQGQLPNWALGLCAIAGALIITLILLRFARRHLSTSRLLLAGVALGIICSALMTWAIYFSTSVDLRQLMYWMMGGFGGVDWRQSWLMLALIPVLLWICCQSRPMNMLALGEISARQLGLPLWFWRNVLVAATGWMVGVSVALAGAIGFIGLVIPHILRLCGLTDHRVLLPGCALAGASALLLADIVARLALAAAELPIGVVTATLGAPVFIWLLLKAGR
T3 sequence (P37028 23-266 partner): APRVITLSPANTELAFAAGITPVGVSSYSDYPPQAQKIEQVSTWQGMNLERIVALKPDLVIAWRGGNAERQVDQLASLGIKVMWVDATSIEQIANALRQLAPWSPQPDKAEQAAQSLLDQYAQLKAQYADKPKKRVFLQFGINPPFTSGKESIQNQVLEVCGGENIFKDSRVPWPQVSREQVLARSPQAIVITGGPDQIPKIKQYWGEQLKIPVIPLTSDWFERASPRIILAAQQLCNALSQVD

[2] = biological target: T4, BtuC, transmembrane subunit of BtuCD of Escherichia coli (E. coli, UniProt P06609 1-326); assay: native MS; co-expressed and co-purified transporter alone, buffer exchanged into 200 mM ammonium acetate with 0.5% C8E4; details: both partners purified
T4 construct: BtuC, transmembrane subunit of the vitamin B12 importer BtuCD, E. coli; construct pET19b-BtuCD; source: E. coli BL21(DE3), co-purified as BtuCD from membranes (LDAO, HisTrap, SEC)
T4 sequence: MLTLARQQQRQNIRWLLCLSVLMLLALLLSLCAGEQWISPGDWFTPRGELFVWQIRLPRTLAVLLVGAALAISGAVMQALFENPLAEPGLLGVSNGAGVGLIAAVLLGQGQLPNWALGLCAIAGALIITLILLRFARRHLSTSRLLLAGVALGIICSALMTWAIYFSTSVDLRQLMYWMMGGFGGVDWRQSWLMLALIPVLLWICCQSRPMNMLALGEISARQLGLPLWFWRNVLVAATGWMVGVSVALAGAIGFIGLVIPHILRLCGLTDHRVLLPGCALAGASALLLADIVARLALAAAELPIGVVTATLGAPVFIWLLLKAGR

[3] = biological target: T5, ModB, transmembrane subunit of ModBC of Archaeoglobus fulgidus (A. fulgidus, UniProt O30143 1-261); assay: as above; details: both partners purified
T5 construct: ModB, transmembrane subunit of the molybdate importer ModBC, A. fulgidus; construct pET19b-ModBC; source: E. coli BL21(DE3), co-purified as ModBC from membranes (DDM and C12E8, HisTrap, SEC)
T5 sequence: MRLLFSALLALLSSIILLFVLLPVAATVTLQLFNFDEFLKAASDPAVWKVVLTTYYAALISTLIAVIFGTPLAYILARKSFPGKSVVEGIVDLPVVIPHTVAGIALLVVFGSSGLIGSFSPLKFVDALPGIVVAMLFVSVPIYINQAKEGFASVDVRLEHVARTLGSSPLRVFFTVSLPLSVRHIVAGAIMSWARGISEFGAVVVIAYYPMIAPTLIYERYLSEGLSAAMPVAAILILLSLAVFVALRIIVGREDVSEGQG

[4] = biological target: T6, vitamin B12 transporter BtuCD (BtuC2D2) of Escherichia coli (E. coli, UniProt P06609 1-326; P06611 1-249); assay: native MS; BtuF and BtuCD incubated in a 1:2 molar ratio (BtuF:BtuCD) in 200 mM ammonium acetate with 0.5% C8E4; without ligand, or with 2 mM vitamin B12, dicyanocobinamide or vitamin B9 added to BtuF before buffer exchange, or 5 mM ATP/MgCl2 or 5 mM AMP-PNP added to BtuCD before buffer exchange, or vitamin B12 and ATP together; details: both partners purified
T6 construct: BtuC, transmembrane subunit of the vitamin B12 importer BtuCD, E. coli; construct pET19b-BtuCD, gift from Kaspar Locher; Purified on a HisTrap column from pET19b-BtuCD; also called tetrameric transporter; source: E. coli BL21(DE3), purified from membranes (LDAO, HisTrap, Superdex 200 SEC); copies: 2 + 2
T6 sequence 1: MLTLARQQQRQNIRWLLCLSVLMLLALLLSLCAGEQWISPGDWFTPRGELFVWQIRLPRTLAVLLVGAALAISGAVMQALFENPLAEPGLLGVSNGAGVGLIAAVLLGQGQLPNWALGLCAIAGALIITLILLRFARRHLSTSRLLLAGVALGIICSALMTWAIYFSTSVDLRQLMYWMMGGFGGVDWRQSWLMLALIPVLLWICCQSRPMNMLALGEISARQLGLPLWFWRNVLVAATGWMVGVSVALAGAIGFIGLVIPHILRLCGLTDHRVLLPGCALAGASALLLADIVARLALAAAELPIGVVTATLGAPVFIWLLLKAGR
T6 sequence 2: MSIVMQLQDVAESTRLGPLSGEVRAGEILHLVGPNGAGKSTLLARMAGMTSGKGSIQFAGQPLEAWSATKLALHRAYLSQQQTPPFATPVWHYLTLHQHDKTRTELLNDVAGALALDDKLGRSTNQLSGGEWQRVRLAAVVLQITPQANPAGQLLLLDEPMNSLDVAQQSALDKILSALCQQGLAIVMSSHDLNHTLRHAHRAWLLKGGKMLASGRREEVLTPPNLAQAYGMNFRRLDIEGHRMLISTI

Molecule: Nc1ncnc2c1ncn2[C@@H]1O[C@H](COP(=O)(O)OP(=O)(O)O)[C@@H](O)[C@H]1O [ADP]
observed mass of complex [1]: an apo form and the species bound to one and two ADP molecules
bound species by mass (BtuCD; 5 mM ATP and 5 mM MgCl2 added before buffer exchange): The presence of ADP-bound species of both BtuCD-F and BtuCD are observed
observed mass of complex (BtuCD-F; 5 mM ATP and 5 mM MgCl2 added to BtuCD before buffer exchange, one and two ADP bound): two nucleotide-bound states with one and two ADP molecules bound

Molecule: Nc1ncnc2c1ncn2[C@@H]1O[C@H](COP(=O)(O)OP(=O)(O)NP(=O)(O)O)[C@@H](O)[C@H]1O [AMP-PNP, Adenosine 5’-(β,γ-imido)triphosphate]
bound species by mass (BtuCD; 5 mM AMP-PNP added before buffer exchange): BtuCD was bound to the two different nucleotides in a similar fashion
observed mass of complex (BtuCD-F; 5 mM AMP-PNP added to BtuCD before buffer exchange, two bound): apo-BtuCD-F as well as a population assigned to BtuCD-F⋅2AMP-PNP

binding result [2]: binds
B1: BtuD, nucleotide binding subunit of BtuCD of Escherichia coli (natural protein, E. coli)
chain: MSIVMQLQDVAESTRLGPLSGEVRAGEILHLVGPNGAGKSTLLARMAGMTSGKGSIQFAGQPLEAWSATKLALHRAYLSQQQTPPFATPVWHYLTLHQHDKTRTELLNDVAGALALDDKLGRSTNQLSGGEWQRVRLAAVVLQITPQANPAGQLLLLDEPMNSLDVAQQSALDKILSALCQQGLAIVMSSHDLNHTLRHAHRAWLLKGGKMLASGRREEVLTPPNLAQAYGMNFRRLDIEGHRMLISTI
notes: construct pET19b-BtuCD; source: E. coli BL21(DE3), co-purified as BtuCD from membranes (LDAO, HisTrap, SEC)

binding result [3]: binds
B2: ModC, nucleotide binding subunit of ModBC of Archaeoglobus fulgidus (natural protein, A. fulgidus)
chain: MFLKVRAEKRLGNFRLNVDFEMGRDYCVLLGPTGAGKSVFLELIAGIVKPDRGEVRLNGADITPLPPERRGIGFVPQDYALFPHLSVYRNIAYGLRNVERVERDRRVREMAEKLGIAHLLDRKPARLSGGERQRVALARALVIQPRLLLLDEPLSAVDLKTKGVLMEELRFVQREFDVPILHVTHDLIEAAMLADEVAVMLNGRIVEKGKLKELFSAKNGEVAEFLSARNLLLKVSKILD
notes: construct pET19b-ModBC; source: E. coli BL21(DE3), co-purified as ModBC from membranes (DDM and C12E8, HisTrap, SEC)

uncomplexed BtuCD relative to BtuCD-F (100%), with dicyanocobinamide [4]: 44%
uncomplexed BtuCD relative to BtuCD-F (100%), with vitamin B9 [4]: 15%
uncomplexed BtuCD relative to BtuCD-F (100%), with vitamin B12 [4]: 45%
uncomplexed BtuCD relative to BtuCD-F, no substrate [4]: 10%
uncomplexed BtuCD relative to BtuCD-F, with AMP-PNP [4]: 43%
uncomplexed BtuCD relative to BtuCD-F, with ATP [4]: 40%
B3: periplasmic vitamin B12 substrate-binding protein BtuF of Escherichia coli (aa 23-266) (natural protein, E. coli, UniProt P37028 23-266, looked up)
chain: APRVITLSPANTELAFAAGITPVGVSSYSDYPPQAQKIEQVSTWQGMNLERIVALKPDLVIAWRGGNAERQVDQLASLGIKVMWVDATSIEQIANALRQLAPWSPQPDKAEQAAQSLLDQYAQLKAQYADKPKKRVFLQFGINPPFTSGKESIQNQVLEVCGGENIFKDSRVPWPQVSREQVLARSPQAIVITGGPDQIPKIKQYWGEQLKIPVIPLTSDWFERASPRIILAAQQLCNALSQVD
notes: also called SBP; source: E. coli BL21(DE3), purified (HisTrap, SEC; same protocol as ModA, final buffer with 10 mM DTT)
